Measurements taken from the nanobody polyreactivity screen of Harvey et al. (2022).

test: yeast display, Sf9 membrane polyspecificity reagent, FACS + sequencing; frameworks hold sequencing errors
In short: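 In a synthetic yeast display library (Saccharomyces cerevisiae BJ5465), nanobody expression was induced with galactose for 36–48 hours. FACS gates were set low and high (top ~1%) using anti-HA fluorescence for expression and streptavidin fluorescence for binding of the Sf9 membrane reagent. Each polyreactivity label is drawn from the gate of origin.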

Sequence	polyreactivity (PSR sort gate)
QVQLVESGGGLVQAGGSLRLSCAASGSIFSNAMGWYRQAPGKERELVAAITGRGGRTYYADSVKGRFTISRDNAKNTVFLQMNSLKPEDTAVDYCARDSPWSSRYRYRAFDYWGQGTQVTVSS	high polyreactivity
QVQLVESGGGLVQAGGSLRLSCAASGRIFLVYAMGRYRQAPGKERELVAAITSDGRTYYADSVKGRFTISRDNAKNTVYLQMNSLKPEDTAVYYCAADRYGAGYLYWPYDYWGQGTQVTVSS	low polyreactivity
QVQLVESGGGLVQAGGSLRISCDASGSTFSRYTLGWYRQAPVKEREMVAAISYRGGSTYYADSVKGRFTISRDNAKNTVYLQMNSLKPEDSAVYYCNADVPRIPYPDMEYWGQGTQVTVSS	low polyreactivity
QVQLVESGGGLVQAGGSLPLSCASSGSTFSTYAMGWYRQAPGKERELVAAIRWSGGSTYYADSVKGRFTLSRDNAKNTVYLLMTSLKPEDTAVYYCAKGIRRWYGGSDYWGQGTQVTVSS	low polyreactivity
QVQLVDSGGGLVQAGGSLRLSCAASGGTISSYAMGWYRQAPGKERELVADITRRGGSTYYADSVKGRFTISRDNAKNTVYLQMNSLKPEDTAVYYCAAEWFRQGHRGLDYWGQGTQVTVSS	high polyreactivity
QVQLEESGGGLVQAGGSLRLSCAASGRTFVYNTKGWYRQAPGKERELVAAITSSGGRTSYADSVKGRFTISRDNAKNTVYLQMNSLKPEDTAVYYCAKDRYTSSTQYRRYDYWGQGTQVTVSS	high polyreactivity
QVQLVESGGGLVQAGGSLRLSCAASGFTFWFYAMGWYRQAPGKEREFVAGISRRGGSTYYADSVKGRFTISRDNAKNTVYLQMNSLKPEDTAVYYCASRQFHNGVTTAGYGYWGQGTQVTVSS	high polyreactivity
QVQLVESGGGLVQAGGSLRLSSAASGFIIPDYGMGWYRQAPGKDSELVAAISRNGVSTYYADSVKGRFTISRDTAKNTVYLQMNSLKPEATAVYYCAARYYRIRRVSKSGYYWGQGTQVTVSS	low polyreactivity
QVQLVESGGGLVQAGGSLRLSCAASGRIFYRYVMGWYRQAPGKERELVAAISRGGGTNYADSVKGRFTISRDNAKNTVYLQMNSLKPEDTAVYYCAARGSPGAGYYWGQGTQVTVSS	high polyreactivity
QVQLVESGGGLVQAGGSLRLSCAASGRTFRANAMGWYRQAPGKERELVAAITWDGGSTYYADSVKGRFTISRDNAKNTVYLQMNSLKPEDTAVYYCNTDPYLWGQGTQVTVSS	low polyreactivity
QVQLVESGGGLVQAGGSLRLSCAASGIIFRTYAMGWYRQAPGKERELVAAITGRGSNTYYADSVKGRFTISRDNAKNTVYLQMNSLKPEETAVYYCNARYYDYRVALRYDYWGQGTQVTVSS	high polyreactivity
QVQLVESGGGLVQAGGSLRLSCAASGSTFWSYAMGWYRQAPGKEREFVAAISSSDDSTYYADSVKGRFTISRDNAKNTVYLQMNSLKPEDTAVYYCATSWYIYPYDYWGQGTQVTVSS	low polyreactivity
QVQLVESGGGLVQAGGSLRLSCAASGYIIDVNTMGWYRPAPGKDRELVAAITSGGTTYYADSVKGRFTISRDNAKNTVYLQMNSLKPEDTAAYYCAALWSRRRSRPSFDYWGQGTQVTVSS	high polyreactivity
QVQLVEAGGGFVQAGGSLRLSCAASGFTFDYYAMGSYRQAHGKERELVAAITLNGGSTYYADSVKGRFTISRDNAKNTVYLQMNSLKPEDPAVYYCAADGSGYYDWYYYWGHGTQVTVSS	low polyreactivity
QVQLVESGRGLVQAGGSLRLSCAASASTFYYNAMGWYRQAPGKEREFVAGITSSGAGTYYADSVKGRFTISRDNAKKTVYLQMNSLKPEDTAVYYCAAVYRWEGRTYRYVYWGQGTQVTVSS	high polyreactivity
QLQLVESGGGLVQAGGSLRLSCAASVFTFYVNAMGWYRQAPGKERELVAAISSSGTRTYYADSVKGRFTISRDNAKNTVYLKMNSMKPEDTAVYYCAARAYQHYKWGQGTQVTVSS	high polyreactivity

Sequence	polyreactivity (PSR sort gate)
QVQLVESGGGLVQAGGSLRLSCAASGRSFKYNAMGWYRQAPGKERELVAAISISGGSTYYADSVKGRFTISRDNAKNTVYLQMNSLKPEDTAVYYCNDDTYYLSDYVTFDYWGQGTQVTVSS	low polyreactivity
QVQLVESGGGLVQAGGSLRLSCAASGSTFTYNAMGWYRQAPGKERELVASISSGTTTYYADSVKGRFTISRDNAKNTVYFQMHSLKPEDTAVYYCAVDSWSRVQGWLAHNYDYWGQGTQVTVSS	low polyreactivity
QVQLVESGGGLVQAGGSLRLSCAASGFIFRYYAMGWYRQAPGKERELVAAITSRGSSTYYADSVKGRFTISRDNAKNTVYLQMNSLKPDDTAVYYCAARLRGDYVRYDYWGQGTQVTVSS	high polyreactivity
QVHLVESGAGLDQAGGSLSLSCAASGRNFSFNAMGSYRQAPGKVRELVASIRSGGSTNYADSVKGRFTISSDNAKNTVYLQMNSLKPEDTAVYYCAKRSTYWGWSSYGMDHWGQGTQVTVSS	high polyreactivity
QVQLVESGGGIVQAGGSLRLSCAASGSIFPDNTMGWYRQAPGKERELVAAITGDGSTYYADSVKGRFTISRDNAKNTVYLERNSLKPEDTAVYYCAAASPSWSYWPRDYWGQGTQVTVSS	low polyreactivity
QVQLVESGGGLVQAGGSLRLSCAASGRTCIDKAMGWYRQAPGKERELVAAITKGARTYYADSVKGRFTISRDNAKNTVYLQMISLKPEDTGVYYCASVSYTQSHAYWGTGYRYGYWGQGTQVTVSS	high polyreactivity
QVQLVESGVGLVQSGGSLRLSCAASGRISAQYTMGWYRQAPGIERELFAAITWSGTNTYYADSVKGRFTISRDNAKNTVYLQFNSLKPEDTAVYYCATAVYLVIFEYDYWGQGTHVTVSS	low polyreactivity
QVQLLESGGGLVQAGGSLRISCAASGSTFVSNAMGWYRQAPGKERELVAAISRSAGRTYYADSVKGRFTISRDTAKNTVYLQMTSLKPEDTAVYYCAARVVHCFGFWGQGTQVTVSS	high polyreactivity
QVQFVDSGAGLVQAGGSLRLSCAASGSTLTTNAMGWYRQAPGKERELVAAISWRGGPTYYADSVKGRFTISRDIAKNTVYLQMNSLKPEDTAVYYCAADYTRSAYDYWGQGTQVTVSS	high polyreactivity
QVQLVESGGGLVQAGGSLRLSCAASGSIFSSYAMGGYRQAPGKEWELVAAISRRGGSTYYADSVKGRFTISRDNAKNTVYLQMNSLKPEDTAVYYCNADSAARKGWPIYGYWGQGTQVTVSS	high polyreactivity
QDQLVESGGGLVQAGGSLRLSCAATGSTFPSNAMGWYRQAPGKEREFVATIRFSGGSTYYADSVKGRFTISRVNAKNTVDLQMNSLKPEDTAVYYCAARFYSSAYWYDYWGQGTQVTVSS	high polyreactivity
QVQLVESGGGLVQAGGSLRLSCAASGSTFLGNAMGWYRQAPGKERELVAGITSGGTTNFADSVKGRFTISRDNAKNTVYLQMNSLKPEDTAVYYCNADVWIGQRLDPGYDFDYWGQGTQVTVSS	low polyreactivity
QVQLVESGGGLVQAGGSLRLSCAASGSTFGGYALGWDRQAPGKDRELVAAISRSGGRTYYADSVKGRFTISRDNAQNTVYLQMNSLKPEATAVYDCYPYYIASTFDYWGHGTQVTVSS	high polyreactivity
QVQLVESGGGLVQAGGSGRLSCAASGITCAYYAMGWYRQAAGKERELVAVITSGGRPNYADSVKGRVTISRDNAKNTVYLQMNSLKPEDTAVYYCAAYRSSKTLRRGYYYWGQGTQVTGSS	high polyreactivity
QVHLVESGGGLVQAGGSLRLSCAASGRIFYSNVMGWYSQAPGKERELLAAISWSGGRTYYADSVKGRFTISRDNAKNTVYLQMNSLKPEDTAVYYCAAPGGVKYDYWGQGTQVTVSS	high polyreactivity
QVQLVESGGGLVQAGGSLRLSCAASGSTFTYYAMGWSRQEPGIEREFVAAISRRGGSTYYADSVKGRFTISRDNAMNTVYLQMKSLKQEDTPVYYCNVVIYSYGINGRYDYWGQGTQDTVSS	high polyreactivity
